These results are taken from article PMC12667553 (2025).

For orientation: Kd means the constant that tells how readily two partners part at equilibrium. The low end stands for tighter binding, the high end for weaker binding.

The assay deals with His6-tagged YAP, purified (immobilised in BLI) (UniProt P46937 1-504). Nature of the assay: BLI. In general terms: In BLI a coated tip is dipped into the sample, and binding shifts an interference pattern.
His6-tagged YAP, purified (immobilised in BLI), sequence (P46937 whole entry): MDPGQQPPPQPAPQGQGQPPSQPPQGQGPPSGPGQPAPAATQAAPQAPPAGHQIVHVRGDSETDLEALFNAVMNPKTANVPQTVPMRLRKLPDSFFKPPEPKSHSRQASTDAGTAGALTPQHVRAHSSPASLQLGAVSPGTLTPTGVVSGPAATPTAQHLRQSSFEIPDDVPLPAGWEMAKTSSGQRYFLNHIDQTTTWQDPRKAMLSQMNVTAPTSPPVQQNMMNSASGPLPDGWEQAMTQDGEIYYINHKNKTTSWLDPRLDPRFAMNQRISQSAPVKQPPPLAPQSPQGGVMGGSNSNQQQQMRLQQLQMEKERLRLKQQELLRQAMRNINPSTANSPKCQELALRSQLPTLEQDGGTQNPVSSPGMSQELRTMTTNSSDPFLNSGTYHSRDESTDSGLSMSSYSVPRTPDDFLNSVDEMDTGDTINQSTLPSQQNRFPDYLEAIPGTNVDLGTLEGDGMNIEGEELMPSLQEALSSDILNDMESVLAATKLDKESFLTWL

B1: recombinant TWF2, purified (BLI analyte) (natural protein)
chain: MAHQTGIHATEELKEFFAKARAGSVRLIKVVIEDEQLVLGASQEPVGRWDQDYDRAVLPLLDAQQPCYLLYRLDSQNAQGFEWLFLAWSPDNSPVRLKMLYAATRATVKKEFGGGHIKDELFGTVKDDLSFAGYQKHLSSCAAPAPLTSAERELQQIRINEVKTEISVESKHQTLQGLAFPLQPEAQRALQQLKQKMVNYIQMKLDLERETIELVHTEPTDVAQLPSRVPRDAARYHFFLYKHTHEGDPLESVVFIYSMPGYKCSIKERMLYSSCKSRLLDSVEQDFHLEIAKKIEIGDGAELTAEFLYDEVHPKQHAFKQAFAKPKGPGGKRGHKRLIRGPGENGDDS
Take B1: the affinity, expressed as Kd, was 7.9 µM.
